# Results from patent publication US20150177248.
# T1: acetylated p53 peptide (p53-382/diAc), P04637
# T1 chain: RHKK
# B1: SIRT7 (sirtuin 7) protein (protein)
# chain: MAAGGLSRSERKAAERVRRLREEQQRERLRQVSRILRKAAAERSAEEGRLLAESADLVTELQGRSRRREGLKRRQEEVCDDPEELRGKVRELASAVRNAKYLVVYTGAGISTAASIPDYRGPNGVWTLLQKGRSVSAADLSEAEPTLTHMSITRLHEQKLVQHVVSQNCDGLHLRSGLPRTAISELHGNMYIEVCTSCVPNREYVRVFDVTERTALHRHQTGRTCHKCGTQLRDTIVHFGERGTLGQPLNWEAATEAASRADTILCLGSSLKVLKKYPRLWCMTKPPSRRPKLYIVNLQWTPKDDWAALKLHGKCDDVMRLLMAELGLEIPAYSRWQDPIFSLATPLRAGEEGSHSRKSLCRSREEAPPGDRGAPLSSAPILGGWFGRGCTKRTKRKKVT
# Target: T1, acetylated p53 peptide (p53-382/diAc), …
protein,measurement,value
B1,deacetylation activity,significantly increased
